In paper PMC2807033 (2009) one finds Kd data, which are given here for one molecule.

No end group written: not given here. *: point of attachment. Biotin = O=C1N[C@H]2[C@H](CS[C@H]2CCCCC(=O)*)N1

The target of this test is E. coli replicative helicase DnaB, purified (E. coli, UniProt P0ACB0 1-471). In words: SPR.
E. coli replicative helicase DnaB, purified, sequence (P0ACB0 whole entry): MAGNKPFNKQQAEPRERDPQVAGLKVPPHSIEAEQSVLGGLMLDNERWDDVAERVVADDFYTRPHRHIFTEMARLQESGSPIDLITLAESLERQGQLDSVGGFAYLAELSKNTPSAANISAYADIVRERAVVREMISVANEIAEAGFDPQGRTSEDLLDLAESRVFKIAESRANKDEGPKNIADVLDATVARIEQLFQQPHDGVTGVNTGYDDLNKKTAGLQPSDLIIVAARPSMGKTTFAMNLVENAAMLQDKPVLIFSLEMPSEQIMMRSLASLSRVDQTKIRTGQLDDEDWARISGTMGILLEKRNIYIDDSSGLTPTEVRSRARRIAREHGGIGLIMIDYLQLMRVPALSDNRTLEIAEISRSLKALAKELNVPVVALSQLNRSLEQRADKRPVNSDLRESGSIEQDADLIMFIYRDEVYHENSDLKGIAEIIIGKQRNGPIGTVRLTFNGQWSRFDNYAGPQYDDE

On to Biotin-EQERKVVSAEERMQKGQSHLANLKAMMAAKRGK [C33^Rep peptide (synthetic peptide corresponding to the C-terminal 33 residues of Rep)], for which the Kd came to 44 nM.
